{
  "source": "patent US20040072207A1",
  "about": "(WHITEHEAD INSTITUTE FOR BIOMEDICAL RESEARCH, published 2004)",
  "binders": {"B1": {"name": "HA-raptor mut1 (194YDC196-AAA) (other, not shown: small tags and cut ends)", "chain": "MESEMLQSPLLGLGEEDEADLTDWNLPLAFMKKRHCEKIEGSKSLAQSWRMKDRMKTVSVALVLCLNVGVDPPDVVKTTPCARLECWIDPLSMGPQKALETIGANLQKQYENWQPRARYKQSLDPTVDEVKKLCTSLRRNAKEERVLFHYNGHGVPRPTVNGEVWVFNKNYTQYIPLSIYDLQTWMGSPSIFVAAASNAGLIVKSFKQFALQREQELEVAAINPNHPLAQMPLPPSMKNCIQLAACEATELLPMIPDLPADLFTSCLTTPIKIALRWFCMQKCVSLVPGVTLDLIEKIPGRLNDRRTPLGELNWIFTAITDTIAWNVLPRDLFQKLFRQDLLVASLFRNFLLAERIMRSYNCTPVSSPRLPPTYMHAMWQAWDLAVDICLSQLPTIIEEGTAFRHSPFFAEQLTAFQVWLTMGVENRNPPEQLPIVLQVLLSQVHRLRALDLLGRFLDLGPWAVSLALSVGIFPYVLKLLQSSARELRPLLVFIWAKILAVDSSCQADLVKDNGHKYFLSVLADPYMPAEHRTMTAFILAVIVNSYHTGQEACLQGNLIAICLEQLNDPHPLLRQWVAICLGRIWQNFDSARWCGVRDSAHEKLYSLLSDPIPEVRCAAVFALGTFVGNSAERTDHSTTIDHNVAMMLAQLVSDGSPMVRKELVVALSHLVVQYESNFCTVALQFIEEEKNYALPSPATTEGGSLTPVRDSPCTPRLRSVSSYGNIRAVATARSLNKSLQNLSLTEESGGAVAFSPGNLSTSSSASSTLGSPENEEHILSFETIDKMRRASSYSSLNSLIGVSFNSVYTQIWRVLLHLAADPYPEVSDVAMKVLNSIAYKATVNARPQRVLDTSSLTQSAPASPTNKGVHIHQAGGSPPASSTSSSSLTNDVAKQPVSRDLPSGRPGTTGPAGAQYTPHSHQFPRTRKMFDKGPEQTADDADDAAGHKSFISATVQTGFCDWSARYFAQPVMKIPEEHDLESQIRKEREWRFLRNSRVRRQAQQVIQKGITRLDDQIFLNRNPGVPSVVKFHPFTPCIAVADKDSICFWDWEKGEKLDYFHNGNPRYTRVTAMEYLNGQDCSLLLTATDDGAIRVWKNFADLEKNPEMVTAWQGLSDMLPTTRGAGMVVDWEQETGLLMSSGDVRIVRIWDTDREMKVQDIPTGADSCVTSLSCDSHRSLIVAGLGDGSIRVYDRRMALSECRVMTYREHTAWVVKASLQKRPDGHIVSVSVNGDVRIFDPRMPESVNVLQIVKGLTALDIHPQADLIACGSVNQFTAIYNSSGELINNIKYYDGFMGQRVGAISCLAFHPHWPHLAVGSNDYYISVYSVEKRVR", "notes": "also called mutant 1"}, "B2": {"name": "HA-raptor mut3 (313NWIF316-AAAA) (other, not shown: small tags and cut ends)", "chain": "B1 chain with A194Y, A195D, A196C, N313A, W314A, I315A, F316A"}, "B3": {"name": "HA-raptor mut 9 (1191RVYDRR1196-DAAADD) (other, not shown: small tags and cut ends)", "chain": "B1 chain with A194Y, A195D, A196C, R1191D, V1192A, Y1193A, D1194A, R1195D, R1196D"}, "B4": {"name": "HA-raptor mut2 (261DLF263-AAA) (other, not shown: small tags and cut ends)", "chain": "B1 chain with A194Y, A195D, A196C, D261A, L262A, F263A"}, "B5": {"name": "HA-raptor mut 7 (738SLQN741-PAAA) (other, not shown: small tags and cut ends)", "chain": "B1 chain with A194Y, A195D, A196C, S738P, L739A, Q740A, N741A", "notes": "also called mutant 7"}},
  "key": {"[1]": {"target": "T1, mTOR (mammalian target of rapamycin), endogenous protein of human cell lines (human, UniProt P42345 1-2549)", "assay": "co-IP from transfected HEK293T cells, western blot (FIG. 6B, 8D)"}, "[2]": {"target": "T1, mTOR (mammalian target of rapamycin), …", "assay": "anti-HA immunoprecipitates from transfected HEK293T cells, mTOR western blot (FIG. 6B)", "experimental": "3 million HEK293T cells in 6-cm dishes were transfected with plasmid constructs and amounts indicated in the Figure legends using the Lipofectamine 2000 transfection reagent (Life Technology). 24 hours after DNA addition, cells were rinsed once with PBS and lysed in 300 μl of ice-cold Buffer B. Immune complexes were prepared from cleared supernatants using 3 μg polyclonal anti-myc or monoclonal anti-HA antibodies and 20 μl of a 50% slurry protein G-Sepharose. After a 3 hour incubation, immuneprecipitates were washed six times with Buffer B and twice with Wash Buffer 2. Bound proteins were eluted in 1× sample buffer, and mTOR or HA- or myc-tagged proteins were detected by immunoblotting as described (Burnett et al., PNAS 95:1432-143 (1998))."}},
  "note": "Substitutions are numbered along the chain they refer to.",
  "data": [
    {"binder": "B1", "values": [
      {"measurement": "binding result", "setting": "[1]", "result": "no binding"}
    ]},
    {"binder": "B2", "values": [
      {"measurement": "binding result", "setting": "[2]", "result": "no binding"}
    ]},
    {"binder": "B3", "values": [
      {"measurement": "binding result", "setting": "[2]", "result": "no binding"}
    ]},
    {"binder": "B4", "values": [
      {"measurement": "binding result", "setting": "[2]", "result": "no binding"}
    ]},
    {"binder": "B5", "values": [
      {"measurement": "binding result", "setting": "[2]", "result": "binds"}
    ]}
  ]
}
